Measurements taken from article PMC2574583 (2008).
Where two headings read alike, the source gives them in different places. Ends that are not written are not given here. * marks the point of attachment. Dansyl = CN(C)c1cccc2c(S(=O)(=O)*)cccc12

How the values were obtained:
dBACH1-P phosphopeptide [1] = target: T1, dBACH1-P phosphopeptide (Homo sapiens, UniProt Q9BX63, also: phosphoserine (position not given here)); experiment: stopped-flow fluorescence
T1 chain: Dansyl-SRSTSPTFNK

BACH1-P phosphopeptide [2] = target: T2, BACH1-P phosphopeptide (Homo sapiens, UniProt Q9BX63, also: phosphoserine (position not given here)); experiment: ITC
T2 chain: SRSTSPTFNK

BACH1-P phosphopeptide [3] = target: T2, BACH1-P phosphopeptide; experiment: ITC
bBACH1-P phosphopeptide [4] = target: T3, bBACH1-P phosphopeptide (Homo sapiens, UniProt Q9BX63, also: phosphoserine (position not given here), biotin (position not given here)); experiment: SPR steady-state
T3 chain: SRSTSPTFNK

bBACH1-P phosphopeptide [5] = target: T3, bBACH1-P phosphopeptide; experiment: SPR steady-state
BACH1-P phosphopeptide [6] = target: T2, BACH1-P phosphopeptide; experiment: ITC
BACH1-P phosphopeptide [7] = target: T2, BACH1-P phosphopeptide; experiment: ITC
BACH1-P phosphopeptide [8] = target: T2, BACH1-P phosphopeptide; experiment: ITC
dBACH1-P phosphopeptide [9] = target: T1, dBACH1-P phosphopeptide; experiment: stopped-flow fluorescence
dBACH1-P phosphopeptide [10] = target: T1, dBACH1-P phosphopeptide; experiment: fluorescence anisotropy
bBACH1-P phosphopeptide [11] = target: T3, bBACH1-P phosphopeptide; experiment: SPR steady-state
bBACH1-P phosphopeptide [12] = target: T3, bBACH1-P phosphopeptide; experiment: SPR kinetics
bBACH1-P phosphopeptide [13] = target: T3, bBACH1-P phosphopeptide; experiment: ITC
bBACH1-P phosphopeptide [14] = target: T3, bBACH1-P phosphopeptide; experiment: SPR steady-state
[15] = target: T4, CtIP phosphopeptide phosphopeptide (Homo sapiens, UniProt Q99708, also: phosphoserine (position not given here)); experiment: SPR
T4 chain: PTRVSSPVFGAT

bBACH1-P phosphopeptide [16] = target: T3, bBACH1-P phosphopeptide; experiment: SPR kinetics

B1: BRCA1-BRCT 1646-1859 (protein)
chain: VNKRMSMVVSGLTPEEFMLVYKFARKHHITLTNLITEETTHVVMKTDAEFVCERTLKYFLGIAGGKWVVSYFWVTQSIKERKMLNEHDFEVRGDVVNGRNHQGPKRARESQDRKIFRGLEICCYGPFTNMPTDQLEWMVQLCGASVVKELSSFTLGTGVHPIVVVQPDAWTEDNGFHAIGQMCEAPVVTREWVLDSVALYQCQELDTYLIPQIP
Kd (dBACH1-P phosphopeptide [1]): 110 nM
Kd (BACH1-P phosphopeptide [2]): 500 nM
Kd (BACH1-P phosphopeptide [3]): 330 nM
Kd (bBACH1-P phosphopeptide [4]): 260 nM
Kd (bBACH1-P phosphopeptide [5]): 530 nM
Kd (BACH1-P phosphopeptide [6]): 410 nM
Kd (BACH1-P phosphopeptide [7]): 490 nM
Kd (BACH1-P phosphopeptide [8]): 280 nM
Kd (dBACH1-P phosphopeptide [9]): 200 nM
Kd (dBACH1-P phosphopeptide [10]): 180 nM
Kd (bBACH1-P phosphopeptide [11]): 560 nM
Kd (bBACH1-P phosphopeptide [12]): 430 nM
Kd (bBACH1-P phosphopeptide [13]): 230 nM
Kd (bBACH1-P phosphopeptide [14]): 350 nM
Kd [15]: 1300 nM
Kd (bBACH1-P phosphopeptide [16]): 90 nM
